The source of these data is PMC7608914, “Bridging of nucleosome-proximal DNA double-strand breaks by PARP2 enhances its interaction with HPF1” (PLoS ONE, 2019).

Assay [1] concerns the target T1, Alexa488-labeled PARP2-QFRD (human, UniProt Q9UGN5-2 1-570, Q112R | F113D, Alexa Fluor 488 C5 maleimide (extent of labeling typically between 20 and 80%); labelled residue not stated).
T1 construct: human Poly(ADP-ribose) Polymerase 2, isoform 2 cDNA in pET28b, Q112R/F113D double point mutant; source: E. coli Rosetta2 (DE3) pLysS, purified (HisTrap, heparin, Superdex 200), then labelled
As to the kind of experiment: FRET or BRET; Alexa647-labeled HPF1 (acceptor) titrated from 18.5 μM to 0 μM into 1 μM Alexa488-labeled PARP2 (donor) alone or into the preformed PARP2–Nuc165 complex (1 μM / 100 nM); 50 mM Tris-HCl pH 8, 50 mM NaCl, 1 mM MgCl2, 0.1 mM EDTA, 0.1 mM TCEP, 0.01% NP-40; Hill model. The conditions noted are these: both partners purified. Background: BRET reads energy transfer from a luciferase to a nearby fluorophore.

Assay [2] has as its target T2, Alexa488-labeled PARP2-WT (human, UniProt Q9UGN5-2 1-570, Alexa Fluor 488 C5 maleimide (extent of labeling typically between 20 and 80%); labelled residue not stated).
T2 construct: human Poly(ADP-ribose) Polymerase 2, isoform 2 cDNA in pET28b; the mutant made from this vector is called full-length; source: E. coli Rosetta2 (DE3) pLysS, purified (HisTrap, heparin, Superdex 200), then labelled
Described as above. The conditions noted are these: both partners purified.

B1: Alexa647-labeled HPF1 (natural protein, human, UniProt Q9NWY4 1-346, looked up)
chain: MVGGGGKRRPGGEGPQCEKTTDVKKSKFCEADVSSDLRKEVENHYKLSLPEDFYHFWKFCEELDPEKPSDSLSASLGLQLVGPYDILAGKHKTKKKSTGLNFNLHWRFYYDPPEFQTIIIGDNKTQYHMGYFRDSPDEFPVYVGINEAKKNCIIVPNGDNVFAAVKLFLTKKLREITDKKKINLLKNIDEKLTEAARELGYSLEQRTVKMKQRDKKVVTKTFHGAGLVVPVDKNDVGYRELPETDADLKRICKTIVEAASDEERLKAFAPIQEMMTFVQFANDECDYGMGLELGMDLFCYGSHYFHKVAGQLLPLAYNLLKRNLFAEIIEEHLANRSQENIDQLAA
modifications: Alexa Fluor 647 C2 maleimide (extent of labeling typically between 20 and 80%); labelled residue not stated
notes: human HPF1; cDNA amplified by PCR and cloned between the Nde1 and Xho1 sites of pET28a; also called HPF1_Alexa647; HPF1_A647; source: E. coli Rosetta2 (DE3) pLysS, purified (HisTrap, Superdex 75), then labelled
As to B1, the Kd (commonly the equilibrium constant for the complex coming apart) was greater than 10 µM in assay [1] and greater than 3 µM in assay [2].
